Test: soluble on expression in E. coli; label from the status in PepcDB or PDB records

With “MGSDKIHHHHHHMATPEFKYQKPFPMGDDTTEYYLLTKEYVSVDKFGDHDVLKVEPEALRLLARTAFHDIAFYLRPEHQQQVARILSDPEASENDKFVALTFLRNAEVSAKGQLPFCQDTGTAIILGKKGQQVWTGGHDEEQLSHGVYDTYTQENLRYSQNAPLDMYKEVNTGCNLPAQIDLMAVDGMEYDFLCIAKGGGSANKTYLYQETKALLNPKTLVNFLVDKMSSLGTAACPPYHIAFVIGGTSAETNLKTVKLASAKYYDNLPTSGNEGGRAFRDVELEKEVLEAAYHLGLGAQFGGKYFAHDVRIIRLPRHGASCPVGMGVSCSADRNIKAKINKDGIWIEKMETNPTRLIPESMREGTEGTVVKVDLNRPMPEILRELSQYPVSTRLSLSGTIIVGRDIAHAKLKERIDRGEGLPDYIKNHPIYYAGPAKTPKGMPSGSFGPTTAGRMDSYVDLFQSHGGSMVMIAKGNRSQQVTDACKKYGGFYLGSVGGPAAILAQDSIKKVECLEYPELGMEAIWKIEVEDFPAFILVDDKGNDFFTQIREKCKGCALH” as the sequence, how does the “soluble on expression in E. coli” value read?
The value was “not soluble”.

For “MEGLLMYDVHSKHADDFISHEEILETLAYADENKTNEALIDSILEKARLRKGLSHREASVLLACPIEEKNQEIYRLAEQIKKDFYGNRIVMFAPLYLSNYCVNGCTYCPYHLKNKHIARKQLTQEEIRKEVIALQDMGHKRLALEAGEDPVRNTIDYYLESIKTIYSIKHKNGAIRRVNINIAATTVDNYRLLKEAGIGTYILFQETYHKESYLALHPTGPKHDYNYHTEAMDRAMEGGIDDVGIGVLFGLDKYRYEFAGLLMHAEHLEAAFGVGPHTISVPRLRHADDINADEFDNGIDDDTFAKIVACIRIAVPYTGMIISTRESQKCRERVLHLGVSQISGGSRTSVGGYCEPEPDDAKSEQFDVSDTRTLDEVVRWLMEMDYIPSFCTACYREGRTGDRFMSLCKSGQIQNCCHPNALMTLKEYLMDYASPETKAIGDRLIDKEVLNVPNEKARAVVLENLRLIEQNNRRDFRF”, which “soluble on expression in E. coli” value is on record?
The value was “not soluble”.

For “MGSDKIHHHHHHMKSRFLLKIFIFLAVFGVDSVRAADCTEKTFKTGTVCVCSLDSCDEIPPLDITMGQAALYTTSHTGARLHRDVIYATDTEPFGTLHMTIDSSKKYQTIQGFGSTFSDASGANLKSLPDKLSDLIMKQYFSDTGLNLQFGRVPIASTDFSGRVYSYNDVANDYSMQNFNLTKEDFQWKIPYIKNAQKYNPNLKLFAAPWAAPGWLKTTKEMTGPGALNGKAGDNYHQAYAKYFVRFLEEYGKSGISFWGLSTQNQPTLGSDKKNKIQSTLFTAETQRDFIKTDLGPALAASSSGKDVKLLILDDNRGNLPKWADTVLNDMDAAKYVGGIGVHAYQDGETDNHLDETHKKHPNFFILGTEASEGYGSKDTHVDYGNWDRAADTASDILDNMNNWMTGWTERNLILDALGGPSWVSDYTDAPVIAFPAMAQFYKQPMFYAIAHFSHFIKPGAVRIDHSLNVIELEVETTAFLNPDGSKVIVMLNKGSLVSTEHTVVVQDAADSRNHYHFTLPHRAITTLYIQTSQF”, which “soluble on expression in E. coli” value is on record?
Its value is “not soluble”.

With “MGSDKIHHHHHHVAASPLRGRTPHRRGPRACRRGPLPRVGAGGLRQMTATEAYLQKGWLRFAAEESIRDWAAHAQRCAETATADPAHAKWLDCEGTWFIGVDALPNDPDGRLPSGPPLEGAALDFIRAHFGEIPALHRAQLSVIYPGYPRPRRGESDAAFGYRCKRDGAHVDGIKIYGTARRRRVEEPHAWVLGLPLNKTSKNAAPLVVWEGSHLIMREAFRLAFEGIALEDWAHVDITDIYTAARREVFETCKRVEVHANPGEAYLMHRLCLHGVAPWADGASATDGAGRMIAYFRPEMPNWQAHWLSDL” as the sequence, how does the “soluble on expression in E. coli” value read?
Its value is “not soluble”.

Which “soluble on expression in E. coli” value does the source give for “MSLISPIIRLSHVTFQTSSAARVIKEFVTKYQFHPFAARGLDGGSPCQVALKNGGVVFMVNENTPKTHENSVLLYDFPLQIPFPDTACNVTFEVEDVSGLYHHLVDEGCQLLLPPTELHDDFGSVTYCIVKSVVGNVSHTLIDRTHYRSSFLPGFEYLKNSTHNLSSGNMTHVDHIAYTCPRGTSPSILEWYRRCFGFQHFPLSKGEDPERGFEIIGPRIGLRLTSLVCPKLSKECKLVLAESLPQEGINQVDEFMQQHTGGGIQHIGLSTPDIFKAAEDLSKLGVCFAIQPSSYYSETKKQKEIYSVGLEPQMLAQFGILMDSATDDILSNDAPKKFLLQVFAEPLFSKNSAFLELIERRSAEGFGEGNIRALWRSMQDLQEDQTVKEQEGEGHHHHHH” here?
The value was “soluble”.

Source: the DeepSol protein solubility set
